We go through seven molecules from publication PMC10269165 (Antimicrobial Agents and Chemotherapy, 2023).

The subject of data set [1] is PMT-complemented mutant yeast. Description: Growth inhibition of complemented yeast (statement on PMT-complemented strains together). Type of data set: cell-based, Saccharomyces cerevisiae. Conditions: various concentrations. The method, then:
(§1) To determine the effect of PMT inhibitors on the growth of PMT- and LacZ-complemented pem1Δpem2Δ S. cerevisiae, the yeast cells were first starved of choline as described above, and the cells were diluted to an OD600 of ~0.6. The PMT-complemented yeast cells were cultured in SG medium (3.4g/L yeast nitrogen base without amino acids, 2% galactose, 30 mg/L histidine, 100 mg/L leucine, 100 mg/L adenine, and 50 mg/L tryptophan) supplemented with 1 mM ethanolamine hydrochloride, while the LacZ-complemented yeast cells were cultured in SG medium supplemented with 1 mM choline chloride. Compounds that depicted cross-inhibitory activity against PMT proteins in vitro were added at various concentrations to the cultures. As a negative control, DMSO (at a final concentration not exceeding 2% [vol/vol]) was added to yeast cultures designated control cultures. The cultures were incubated at 30°C with shaking at 275 rpm for 4 days. On a daily basis during the course of culture, 200-μL portions of culture aliquots were taken, and their OD600s were measured using a microplate reader. In preliminary work, we had observed that the growth of PMT- and LacZ-complemented pem1Δpem2Δ S. cerevisiae plateaued at 3 to 4 days of culture. Therefore, to determine the inhibitory effect of nematode PMT inhibitors on the growth of PMT- and LacZ-complemented pem1Δpem2Δ S. cerevisiae, measurements taken on day 3 were used. The results were presented as percentage of growth rate using the following formula: PGR = growth rate (plus inhibitor)/growth rate (minus inhibitor) × 100 where the percent growth rate (PGR) is the growth rate of inhibitor-treated PMT- or LacZ- complemented Pem1Δpem2Δ S. cerevisiae, considering the growth rate of untreated PMT- or LacZ- complemented Pem1Δpem2Δ S. cerevisiae is 100%; the growth rate = ΔA600^Day 3/ΔA600^Day 0; ΔA600^Day 0 is the absolute value of A600 of PMT- or LacZ- complemented pem1Δ/pem2Δ S. cerevisiae at day 0, which equals the A600 of the culture minus the A600 of the growth medium only; ΔA600^Day 3 is the absolute value of the A600 of PMT- or LacZ complemented pem1Δ/pem2Δ S. cerevisiae at day 3, which equals the A600 of the culture at day 3 minus the A600 of growth medium only; the growth rate (plus inhibitor) is the growth rate of PMT- or -LacZ complemented pem1Δpem2Δ S. cerevisiae in the presence of test compound; and the growth rate (minus inhibitor) is the growth rate of the PMT- or LacZ complemented pem1Δ/pem2Δ S. cerevisiae in the absence of test compound, but with a volume of DMSO equal to that of compound added in the treated culture. The dose-response curves were generated with GraphPad Prism software and IC50 concentrations of the compounds in PMT- and LacZ-complemented yeast cells derived.

Data set [2] deals with LacZ-complemented pem1Δ/pem2Δ S. cerevisiae. Description: Growth inhibition of complemented yeast. The class given is cell-based, Saccharomyces cerevisiae. Conditions: medium with choline. The method, then: as §1
The target in a further data set is DvPMT1 (Dictyocaulus viviparus, UniProt A0A0D8Y714). Description: PMT enzyme kinetics, fluorescence methyltransferase assay. Type of data set: biochemical. Conditions: on phosphoethanolamine. The method, then: (§2) We customized a commercial methyltransferase HT activity assay kit (ENZO) for use of recombinant PMT proteins as enzymes, S-adenosyl-L-methionine (SAM) as the methyl donor, and PE as the substrate, as reported previously ([27]). […] Briefly, the reaction mixture contained 2.5 μL of the kit SAM-free methyltransferase reaction buffer, 3 μL of 10 mM PE solution (pH 7.5), 15 μL of 1 mM SAM solution (pH 7.8), and 1× transferase assay buffer to a final volume of 25 μL. Various concentrations (25-μL total volume) of recombinant PMT protein were added to reactions.
(§3) To determine the enzyme kinetic parameters on SAM, fixed concentrations of PMT recombinant proteins (between 15 and 100 ng/μL, depending on the derived optimal concentration) and PE (200 μM) were used in the reactions, with various concentrations of SAM (0 to 160 μM). On the other hand, to determine the enzyme kinetic parameters on PE, fixed concentrations of PMT recombinant proteins (between 15 and 100 ng/μL, depending on the derived optimal concentration) and SAM (100 μM) were used, with various concentrations of PE (0 to 250 μM).
(§4) For normalization, instead of purified protein, 25 μL of 100 μM S-(5′-adenosyl)-L-homocysteine (SAH) as a positive control, 25 μL of dialysis buffer as a negative control, and 25 μL of 1× transferase assay buffer as a blank control were added to the respective reaction mixtures. The reactions were prepared in triplicate wells using black flat-bottomed 96-well plates. Detection buffer (100 μL) was added into each reaction, yielding a final reaction volume of 150 μL. The plates were covered in aluminum foil and incubated at room temperature with shaking for 30 min, and fluorescence read at 380EX/520EM using a SpectraMax Gemini EM microplate reader (Molecular Devices). Sample readouts were normalized with positive and negative controls.

The target in a further data set is AsPMT (Ascaris suum, UniProt F1L4B9). The description is as above. Conditions: on phosphoethanolamine. Type of data set: biochemical. The method, then:
as §2, §3, §4

A further data set deals with HcPMT1 (Haemonchus contortus, UniProt U5HK46). The data set is described as above. Type of data set: biochemical. The conditions noted are these: on phosphoethanolamine. Here is the method: as §2, §3, §4
For the next data set, the target named is TcPMT (Toxocara canis, UniProt A0A0B2VTW9). The description is as above. The class given is biochemical. Conditions: on phosphoethanolamine. The method, then:
as §2, §3, §4

The next data set concerns the target OdPMT (Oesophagostomum dentatum, UniProt A0A0B1TAL6). The description is as above. The class given is biochemical. Conditions: on phosphoethanolamine. Here is the method: as §2, §3, §4
A further data set deals with AcPMT1 (Ancylostoma duodenale, UniProt A0A0C2DEB6). The description is as above. Type of data set: biochemical. The conditions noted are these: on phosphoethanolamine. Here is the method: as §2, §3, §4
Substrate in data set [3]: C[S+](CC[C@H](N)C(=O)[O-])C[C@H]1O[C@@H](n2cnc3c(N)ncnc32)[C@H](O)[C@@H]1O
The description is as above. The class given is biochemical, Dictyocaulus viviparus. Conditions: other: on S-adenosyl-L-methionine. Here is the method: as §2, §3, §4

Substrate in data set [4]: C[S+](CC[C@H](N)C(=O)[O-])C[C@H]1O[C@@H](n2cnc3c(N)ncnc32)[C@H](O)[C@@H]1O
The description is as above. Type of data set: biochemical, Toxocara canis. Conditions: other: on S-adenosyl-L-methionine. The method, then:
as §2, §3, §4

Substrate in data set [5]: C[S+](CC[C@H](N)C(=O)[O-])C[C@H]1O[C@@H](n2cnc3c(N)ncnc32)[C@H](O)[C@@H]1O
Described as above. Type of data set: biochemical, Oesophagostomum dentatum. Conditions: other: on S-adenosyl-L-methionine. Here is the method: as §2, §3, §4

Substrate in data set [6]: C[S+](CC[C@H](N)C(=O)[O-])C[C@H]1O[C@@H](n2cnc3c(N)ncnc32)[C@H](O)[C@@H]1O
The description is as above. Conditions: other: on S-adenosyl-L-methionine. Type of data set: biochemical, Haemonchus contortus. The method, then:
as §2
(§5) To determine the enzyme kinetic parameters on SAM, fixed concentrations of PMT recombinant proteins (between 15 and 100 ng/μL, depending on the derived optimal concentration) and PE (200 μM) were used in the reactions, with various concentrations of SAM (0 to 160 μM). […]
(§6) For normalization, instead of purified protein, 25 μL of 100 μM S-(5′-adenosyl)-L-homocysteine (SAH) as a positive control, 25 μL of dialysis buffer as a negative control, and 25 μL of 1× transferase assay buffer as a blank control were added to the respective reaction mixtures. […] The plates were covered in aluminum foil and incubated at room temperature with shaking for 30 min, and fluorescence read at 380EX/520EM using a SpectraMax Gemini EM microplate reader (Molecular Devices). Sample readouts were normalized with positive and negative controls.

Substrate in data set [7]: C[S+](CC[C@H](N)C(=O)[O-])C[C@H]1O[C@@H](n2cnc3c(N)ncnc32)[C@H](O)[C@@H]1O
The data set is described as above. The class given is biochemical, Ancylostoma duodenale. The conditions noted are these: other: on S-adenosyl-L-methionine. The method, then: as §2, §5, §6

Chain of AsPMT (F1L4B9 entry or part of it): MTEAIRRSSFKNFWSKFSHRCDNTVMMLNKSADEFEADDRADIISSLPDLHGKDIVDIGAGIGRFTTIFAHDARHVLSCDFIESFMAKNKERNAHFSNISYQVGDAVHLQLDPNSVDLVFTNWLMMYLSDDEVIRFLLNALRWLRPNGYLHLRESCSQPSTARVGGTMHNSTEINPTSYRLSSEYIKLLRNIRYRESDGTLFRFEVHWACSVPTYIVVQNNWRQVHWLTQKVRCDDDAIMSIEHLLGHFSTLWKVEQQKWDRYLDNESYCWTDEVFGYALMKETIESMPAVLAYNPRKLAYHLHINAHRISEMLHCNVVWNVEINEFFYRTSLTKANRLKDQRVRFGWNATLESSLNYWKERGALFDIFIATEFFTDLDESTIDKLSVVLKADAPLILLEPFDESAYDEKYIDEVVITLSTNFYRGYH

For `CC[C@H]1NC(=O)[C@@H](NC(=O)c2ncccc2O)[C@@H](C)OC(=O)[C@H](c2ccccc2)NC(=O)[C@@H]2CC(=O)CCN2C(=O)[C@H](Cc2ccccc2)N(C)C(=O)[C@@H]2CCCN2C1=O` [NSC177858], the “effect on the growth of PMT-complemented mutant yeast” value in data set [1] was “concentration-dependent inhibitory effect”. Further, the “effect on LacZ-expressing mutant yeast” value in data set [2] is “no or negligible inhibitory effect”.
Turning to `NCCOP(=O)(O)O` [phosphoethanolamine], the Km at DvPMT1 came to 308 ± 41.7 µM; on AsPMT it was 99.9 ± 36.6 µM; at HcPMT1 it was 73.4 ± 54.9 µM; on TcPMT, 85 ± 77.8 µM; on OdPMT, 81 ± 12.8 µM. Also, the kcat on DvPMT1 is 16.113 ± 1.61 s⁻¹; on AsPMT, 3.2383 ± 0.49 s⁻¹; at HcPMT1, 1,066.30 ± 72.70 min^−1; at TcPMT it was 10.412 ± 3.6983 s⁻¹; at OdPMT it was 5.5833 ± 0.3603 s⁻¹; at AcPMT1 it was 7,071.00 ± 1,141.00 min^−1.

B1: DvPMT1 (Dictyocaulus viviparus) (protein)
chain: MSQGMRHADAVIYGEYDNGRRMKENELKGEHIKNYRTTYDENSFNNTMAVEVRRDLFKTFWDRYSDKPDTNSMMLNHTANDLDASDRADILSSLPHLGNKDVVDIGAGIGRFTTVLANTARWVHSTDFIESFIAKNQERNAHLGNISYQIGDAVNLQMNERSVDLVFTNWLMMYLSDHEVIEFLFNAMRWLRPDGYLHLRESCSEPSTACSKTATMHSSAEANPTHYRFSSLYIKLLRTIRYRDNSGKLWKFDVQWSCSVPTYIQRSNNWRQVHWLTRKVPANNGDTDTSISLLLNLFSQIWPAEQVEWDLKLNIESYVWTDRVFSNAINDEVVPRNGTALVFTPRKRSPYLHVNSHLLAEKFTCNVWTVETNEYYYRTSLTKANHEKNHRVRFGWNESLTSSIDYWSQRDASFDCLISTELLSTNSDDEIKRITRMIGCGFKHVNILDVTNDSRTAEVMFYSEHSINAEPLGCTFLLISATL
With B1, in data set [3], the Michaelis-Menten constant (Km) stood at 35.02 ± 5.05 µM, the Vmax is 0.445 µmol/min/mg, the kcat worked out at 3.96 ± 0.214 s⁻¹ and the kcat/Km is 113000 M⁻¹ s⁻¹.

B2: TcPMT (Toxocara canis) (protein)
chain: MPRLNQKAKTFRDFLDTTQYTDEGIRAYEWIFGENFISPGGYNENLLVLKRLGELKPDSRMLDIGVGIGGGARQAAKEFGLLVLGIDISANMLSIAMDRLQVEKDTRIRYQICNAVDYQFPSNSFDYIVSRDGLHHNEHIDIVMKNIFKWLKPGGKALITIYGKGHGAPKTKFQAYVENRKYHLKTLEQMVQVTKDAGFENVQGTNLTKRLRDILIEERTRALARKGRFLEDFSEETFNSLLEGWNDKIDFIDDDNQTWLQIIATKPL
Regarding B2, in [4], the Km was found to be 20.31 ± 2.23 µM, the Vmax came out at 1.08 ± 0.0324 µmol/min/mg, the kcat worked out at 10.9 ± 0.327 s⁻¹ and the kcat/Km is 539000 M⁻¹ s⁻¹.

B3: OdPMT (Oesophagostomum dentatum) (protein)
chain: MIFQKRFTTVLAETARWVHSTDFIESFIAKNQERNAHLGNISYQIGDAVHLQMDEKSVDLVFTNWLMMYLSDREVIEFLFNAMRWLRADGYMHLRESCSEPSTGRSKSATMHTSAEANPTHYRFSSLYIKLLRALRYQDSDGKVWRFDVQWSCSVPTYIRFFSETWRAEQIAWDAKLDKEQYVWTDKIFSNVLDSAVVPKNSTAYVFTPRRRSPYLHVNSHLLADKFTCNVWNVELNENFYRTSLTKANNQKDQRVRFGWNETLASSIDYWTQRDGSFDCLIATELLSTSDDESIKSIASIMKPEAKCVLLEPVDEVNEAVIKARMSSCGFKNVSVMDVTEDCKAAEAAYASDHNLQIDPSNCSYVLINASL
Consider B3, for which, in [5], the Km was 48.95 ± 7.07 µM, the Vmax was determined as 3.13 ± 0.204 µmol/min/mg, the kcat worked out at 45.4 ± 2.96 s⁻¹ and the kcat/Km was determined as 927000 M⁻¹ s⁻¹.

B4: HcPMT1 (Haemonchus contortus) (protein)
chain: MTAEVRRDSFKTFWDKYSDKPDTNSMMLNQTAQDLEASDRADILSSLPHLTNKDVVDIGAGIGRFTTVLAETARWVLSTDFIESFIEKNQERNAHMGNISYQIGDAVHLQMDEKSVDLVFTNWLMMYLSDREVIEFLLNAMRWLRADGYIHLRESCSEPSTGRLKTATMHSAVDANPTHYRFSSLYIKLLRAIRYRDSDGKMWKFDVQWSCSVPTYIRRCNNWRQVHWLTKKVPAVGDEETSVDDLLNLFSQIWPAEQKTWDEKLDNEKYSWTDKIFSNAIDDEVVPKNSTAYVFTPRQRSPFLHVNSHLLAEKFTCNVWNVETKEYLYRTSLTKANNQKDQRVRFGWNESLSSSIDYWNQRDASFDCMVATELLATCDDESINSIASIMKPEAKVVLLEPVSGIDETSVRQRMTTCGFKNITIVDVTQESLNAEVSFIKDHNLDVELSGCNYLLIKASL
For B4, in [6], the Km is 18.34 ± 3.80 µM and the kcat/Km is 3.91e+06 M⁻¹ s⁻¹.

B5: AcPMT1 (Ancylostoma duodenale) (protein)
chain: MEERSVDLVFTNWLMMYLSDREVIEFLFNAMRWLRADGYMHLRESCSEPSTGRAKSSTMHSNTDSNPTHYRFSSLYIKLLRAIRYRDNDGKVWRFDVQWSCSVPTYIKRSNNWRQVHWLTKKVSADGDDETTINDLLKLFSQTWYTEQVAWDAKLDNEKYVWTDKIFSNAIDNEVVPKNSTAYVFTPRKMSPYLHINSHLLAEKFTCNVWNVEMNENFYRTSLTKANNQKDQRVRFGWNESLASSIDYWTQRDASFDCLIGTELLSTNGDESIKRIASIMKPEAKIVLLEPVDDVAEQAIKERMASCGFKNISVVDVTEECKAAEAAYANDHNLAFLFIEL
Turning to B5, in data set [7], the Km was determined as 27.33 ± 3.58 µM and the kcat/Km was 1.98e+06 M⁻¹ s⁻¹.
